Source: patent US20190248888A1, “METHODS OF LOWERING BLOOD GLUCOSE LEVELS” (Regeneron Pharmaceuticals, Inc., priority 2016, published 2019)

Test system: livers of mice
Test: RNAseq gene expression in liver of GCGR antibody treated mice
Type: in vivo, mouse
Details: 21 days
Description: All procedures were conducted in compliance with protocols approved by the Institutional Animal Care and Use Committee of Regeneron Pharmaceuticals. The in vitro and in vivo characteristics of REGN1193 (H4H1327P), a potent monoclonal GCGR blocking antibody has been previously described (See U.S. Pat. No. 8,545,847). This antibody was used as the exemplary glucagon signaling pathway antagonist in all studies in this report (See the HVCR/LCVR amino acid sequence pair of SEQ ID NOs: 86/88 in the present application. See also the corresponding heavy chain complementarity determining regions (HCDRs 1-2-3 of SEQ ID NOs: 72-74-76) and the corresponding light chain complementarity determining regions (LCDRs 1-2-3 of SEQ ID NOs: 80-82-84). The GCGR antibody and isotype control antibody were diluted with sterile PBS.
Total RNA was purified from all samples using MagMAX™-96 for Microarrays Total RNA Isolation Kit (Ambion by Life Technologies) according to manufacturer's specifications. Genomic DNA was removed using MagMAX™Turbo™DNase Buffer and TURBO DNase from the MagMAX kit listed above (Ambion by Life Technologies). mRNA was purified from total RNA using Dynabeads® mRNA Purification Kit (Invitrogen). Strand-specific RNA-seq libraries were prepared using ScriptSeq™ mRNA-Seq Library Preparation Kit (Epicentre). Twelve-cycle PCR was performed to amplify libraries. Sequencing was performed on Illumina HiSeq®2000 (Illumina) by multiplexed single-read run with 33 cycles.
Raw sequence data (BCL files) were converted to FASTQ format via Illumina Casava 1.8.2. Reads were decoded based on their barcodes and read quality was evaluated with FastQC (http://www.bioinformatics.babraham.ac.uk/projects/fastqc/). Reads were mapped to the mouse transcriptome (NCBI GRCh37) using CLC Genomics Workbench Version 7.0 (CLCbio) or TopHat2 (Version 2.0.10) allowing two mismatches. Reads mapped to the exons of a gene were summed at the gene level. To identify differentially expressed genes, the statistical significance (p-value) of the differential expressions was assessed with DESeq package (version 1.6 or 2.0).
A key role of glucagon is to promote the uptake and metabolism of amino acids in the liver to provide gluconeogenic precursors. To further explore this pathway, a recently described fully human GCGR-blocking antibody (Okamato et al, 2015, Endocrinol. 156:2781-2794; See also, U.S. Pat. No. 8,545,847) derived using VelocImmune technology (Macdonald et al., 2014, PNAS 111:5147-5152; Murphy et al., 2014, PNAS 111:5153-5158) was used in the experiments provided herein. […] As shown previously (Mu et al., 2012, PLOS ONE 7:349572; Okamoto et al., 2015, Endocrinol. 156:2781-2794; Solloway et al., 2015, Cell Reports 12:495-510), and confirmed later in this study, these findings provide a mechanism for the elevated circulating amino acid levels that are observed in mice and monkeys with impaired GCGR signaling.

[1] = liver of mice, 15 mg/kg α-GCGR vs control antibody

B1: α-GCGR: potent monoclonal GCGR blocking antibody, HCVR/LCVR SEQ ID NOs: 86/88 (antibody, V domains shown)
VH: EVQLVESGGGLVQPGGSLRLSCAASGFTFSNYLMNWVRQAPGKGLEWLANIQEDGIEKYYVDSVKGRFTISRDNAKNSLYLQMNSLRAEDTAVYYCAREPSHYDILTGYDYYYGMDVWGQGTTVTVS
VL: DIQMTQSPSSLSASVGDRVTITCRASQGIRNDLGWYQQKPGKAPKRLIYAASSLQSGVPSRFSGSGSGTEFILTVSSLQPEDFATYYCLQYNSNPFTFGPGTKVDIK
- Aass Fold change [1]: −1.85
- Abat Fold change [1]: −1.64
- Acmsd Fold change [1]: −2.70
- Agxt Fold change [1]: −2.17
- Aldh4a1 Fold change [1]: −1.64
- Aldoa Fold change [1]: −1.15
- Arg1 Fold change [1]: −1.56
- Asl Fold change [1]: −1.92
- Ass1 Fold change [1]: −3.23
- Bhmt Fold change [1]: −2.00
- Cbs Fold change [1]: −1.85
- Cps1 Fold change [1]: −1.96
- Cth Fold change [1]: −3.12
- Ddc Fold change [1]: −2.08
- Eno1 Fold change [1]: −1.20
- Fbp1 Fold change [1]: −1.67
- G6pc Fold change [1]: −1.39
- Gcat Fold change [1]: −1.67
- Gldc Fold change [1]: −1.72
- Gnmt Fold change [1]: −2.56
- Got1 Fold change [1]: −8.33
- Gpi1 Fold change [1]: 1.03
- Gpt Fold change [1]: −1.72
- Hgd Fold change [1]: −1.75
- Hpd Fold change [1]: −1.92
- Ivd Fold change [1]: −1.56
- Lap3 Fold change [1]: −1.56
- Mat1a Fold change [1]: −2.04
- Mpst Fold change [1]: −1.61
- Nags Fold change [1]: −1.67
- Oat Fold change [1]: −6.67
- Otc Fold change [1]: −1.12
- Pah Fold change [1]: −1.75
- Pck1 Fold change [1]: −1.82
- Pgam1 Fold change [1]: −1.20
- Pgk1 Fold change [1]: −1.16
- Prodh Fold change [1]: −1.67
- Sardh Fold change [1]: −1.75
- Sds Fold change [1]: −3.23
- Slc1a2 Fold change [1]: −1.25
- Slc3a1 Fold change [1]: −1.72
- Slc3a2 Fold change [1]: −1.08
- Slc6a9 Fold change [1]: 1.45
- Slc7a2 Fold change [1]: −2.27
- Slc15a3 Fold change [1]: −1.12
- Slc15a4 Fold change [1]: −1.15
- Slc16a10 Fold change [1]: −1.28
- Slc17a8 Fold change [1]: 2.32
- Slc25a12 Fold change [1]: 1.27
- Slc25a13 Fold change [1]: −1.27
- Slc25a15 Fold change [1]: −1.92
- Slc25a22 Fold change [1]: −1.56
- Slc36a1 Fold change [1]: −1.41
- Slc36a4 Fold change [1]: −1.18
- Slc38a2 Fold change [1]: −1.08
- Slc38a3 Fold change [1]: −1.75
- Slc38a4 Fold change [1]: −1.56
- Slc38a6 Fold change [1]: −1.09
- Slc38a7 Fold change [1]: 1.05
- Slc38a9 Fold change [1]: 1.17
- Slc38a10 Fold change [1]: −1.04
- Slc43a1 Fold change [1]: −2.78
- Tat Fold change [1]: −4.35
- Tpi1 Fold change [1]: −1.14
- pcx Fold change [1]: −1.15
- Aass expression RPKM (liver of mice, 15 mg/kg α-GCGR): 60.38 RPKM
- Abat expression RPKM (liver of mice, 15 mg/kg α-GCGR): 43.18 RPKM
- Acmsd expression RPKM (liver of mice, 15 mg/kg α-GCGR): 3.90 RPKM
- Agxt expression RPKM (liver of mice, 15 mg/kg α-GCGR): 111.91 RPKM
- Aldh4a1 expression RPKM (liver of mice, 15 mg/kg α-GCGR): 64.72 RPKM
- Aldoa expression RPKM (liver of mice, 15 mg/kg α-GCGR): 16.24 RPKM
- Arg1 expression RPKM (liver of mice, 15 mg/kg α-GCGR): 969.96 RPKM
- Asl expression RPKM (liver of mice, 15 mg/kg α-GCGR): 151.51 RPKM
- Ass1 expression RPKM (liver of mice, 15 mg/kg α-GCGR): 190.00 RPKM
- Bhmt expression RPKM (liver of mice, 15 mg/kg α-GCGR): 98.73 RPKM
- Cbs expression RPKM (liver of mice, 15 mg/kg α-GCGR): 126.52 RPKM
- Cps1 expression RPKM (liver of mice, 15 mg/kg α-GCGR): 419.74 RPKM
- Cth expression RPKM (liver of mice, 15 mg/kg α-GCGR): 139.77 RPKM
- Ddc expression RPKM (liver of mice, 15 mg/kg α-GCGR): 15.03 RPKM
- Eno1 expression RPKM (liver of mice, 15 mg/kg α-GCGR): 14.96 RPKM
- Fbp1 expression RPKM (liver of mice, 15 mg/kg α-GCGR): 365.35 RPKM
- G6pc expression RPKM (liver of mice, 15 mg/kg α-GCGR): 40.65 RPKM
- Gcat expression RPKM (liver of mice, 15 mg/kg α-GCGR): 18.88 RPKM
- Gldc expression RPKM (liver of mice, 15 mg/kg α-GCGR): 33.42 RPKM
- Gnmt expression RPKM (liver of mice, 15 mg/kg α-GCGR): 449.55 RPKM
- Got1 expression RPKM (liver of mice, 15 mg/kg α-GCGR): 9.98 RPKM
- Gpi1 expression RPKM (liver of mice, 15 mg/kg α-GCGR): 16.58 RPKM
- Gpt expression RPKM (liver of mice, 15 mg/kg α-GCGR): 103.74 RPKM
- Hgd expression RPKM (liver of mice, 15 mg/kg α-GCGR): 109.59 RPKM
- Hpd expression RPKM (liver of mice, 15 mg/kg α-GCGR): 874.17 RPKM
- Ivd expression RPKM (liver of mice, 15 mg/kg α-GCGR): 51.86 RPKM
- Lap3 expression RPKM (liver of mice, 15 mg/kg α-GCGR): 108.58 RPKM
- Mat1a expression RPKM (liver of mice, 15 mg/kg α-GCGR): 525.98 RPKM
- Mpst expression RPKM (liver of mice, 15 mg/kg α-GCGR): 17.32 RPKM
- Nags expression RPKM (liver of mice, 15 mg/kg α-GCGR): 13.94 RPKM
- Oat expression RPKM (liver of mice, 15 mg/kg α-GCGR): 66.76 RPKM
- Otc expression RPKM (liver of mice, 15 mg/kg α-GCGR): 292.99 RPKM
- Pah expression RPKM (liver of mice, 15 mg/kg α-GCGR): 232.16 RPKM
- Pck1 expression RPKM (liver of mice, 15 mg/kg α-GCGR): 490.87 RPKM
- Pgam1 expression RPKM (liver of mice, 15 mg/kg α-GCGR): 2.12 RPKM
- Pgk1 expression RPKM (liver of mice, 15 mg/kg α-GCGR): 1.91 RPKM
- Prodh expression RPKM (liver of mice, 15 mg/kg α-GCGR): 89.26 RPKM
- Sardh expression RPKM (liver of mice, 15 mg/kg α-GCGR): 122.51 RPKM
- Sds expression RPKM (liver of mice, 15 mg/kg α-GCGR): 39.47 RPKM
- Slc1a2 expression RPKM (liver of mice, 15 mg/kg α-GCGR): 14.89 RPKM
- Slc3a1 expression RPKM (liver of mice, 15 mg/kg α-GCGR): 9.78 RPKM
- Slc3a2 expression RPKM (liver of mice, 15 mg/kg α-GCGR): 14.56 RPKM
- Slc6a9 expression RPKM (liver of mice, 15 mg/kg α-GCGR): 10.29 RPKM
- Slc7a2 expression RPKM (liver of mice, 15 mg/kg α-GCGR): 67.24 RPKM
- Slc15a3 expression RPKM (liver of mice, 15 mg/kg α-GCGR): 1.15 RPKM
- Slc15a4 expression RPKM (liver of mice, 15 mg/kg α-GCGR): 5.47 RPKM
- Slc16a10 expression RPKM (liver of mice, 15 mg/kg α-GCGR): 14.93 RPKM
- Slc17a8 expression RPKM (liver of mice, 15 mg/kg α-GCGR): 4.18 RPKM
- Slc25a12 expression RPKM (liver of mice, 15 mg/kg α-GCGR): 4.68 RPKM
- Slc25a13 expression RPKM (liver of mice, 15 mg/kg α-GCGR): 76.40 RPKM
- Slc25a15 expression RPKM (liver of mice, 15 mg/kg α-GCGR): 50.85 RPKM
- Slc25a22 expression RPKM (liver of mice, 15 mg/kg α-GCGR): 14.40 RPKM
- Slc36a1 expression RPKM (liver of mice, 15 mg/kg α-GCGR): 3.90 RPKM
- Slc36a4 expression RPKM (liver of mice, 15 mg/kg α-GCGR): 1.34 RPKM
- Slc38a2 expression RPKM (liver of mice, 15 mg/kg α-GCGR): 17.59 RPKM
- Slc38a3 expression RPKM (liver of mice, 15 mg/kg α-GCGR): 285.49 RPKM
- Slc38a4 expression RPKM (liver of mice, 15 mg/kg α-GCGR): 261.42 RPKM
- Slc38a6 expression RPKM (liver of mice, 15 mg/kg α-GCGR): 1.72 RPKM
- Slc38a7 expression RPKM (liver of mice, 15 mg/kg α-GCGR): 4.41 RPKM
- Slc38a9 expression RPKM (liver of mice, 15 mg/kg α-GCGR): 1.48 RPKM
- Slc38a10 expression RPKM (liver of mice, 15 mg/kg α-GCGR): 19.58 RPKM
- Slc43a1 expression RPKM (liver of mice, 15 mg/kg α-GCGR): 0.83 RPKM
- Tat expression RPKM (liver of mice, 15 mg/kg α-GCGR): 197.67 RPKM
- Tpi1 expression RPKM (liver of mice, 15 mg/kg α-GCGR): 46.09 RPKM
- pcx expression RPKM (liver of mice, 15 mg/kg α-GCGR): 68.44 RPKM
- expression of genes involved in amino acid metabolism, urea cycle and gluconeogenesis (livers of mice, 15 mg/kg): reduced expression
- expression of mitochondrial amino acid transporters Slc25a15 and Slc25a22 (livers of mice, 15 mg/kg): significantly reduced
- reduction of expression of plasma membrane amino acid transporters Slc38a3, Slc38a4, Slc7a2 and Slc3a1 (livers of mice, 15 mg/kg): 30-50%
